Source: US20220162334A1 (SHANGHAI HENLIUS BIOTECH, published 2022)
Where a chain is given by its changes, count along the chain named. In names and notes the source's numbering stands.

T1: human CD73 on CD73-expressing human tumor cells (MDA-MB-231, NCI-H292) (human, UniProt P21589 27-549)
T1 construct: whole, on cells; The cell line of each result is named under assay or readout; also called cell surface CD73; surface CD73
T1 sequence (looked up): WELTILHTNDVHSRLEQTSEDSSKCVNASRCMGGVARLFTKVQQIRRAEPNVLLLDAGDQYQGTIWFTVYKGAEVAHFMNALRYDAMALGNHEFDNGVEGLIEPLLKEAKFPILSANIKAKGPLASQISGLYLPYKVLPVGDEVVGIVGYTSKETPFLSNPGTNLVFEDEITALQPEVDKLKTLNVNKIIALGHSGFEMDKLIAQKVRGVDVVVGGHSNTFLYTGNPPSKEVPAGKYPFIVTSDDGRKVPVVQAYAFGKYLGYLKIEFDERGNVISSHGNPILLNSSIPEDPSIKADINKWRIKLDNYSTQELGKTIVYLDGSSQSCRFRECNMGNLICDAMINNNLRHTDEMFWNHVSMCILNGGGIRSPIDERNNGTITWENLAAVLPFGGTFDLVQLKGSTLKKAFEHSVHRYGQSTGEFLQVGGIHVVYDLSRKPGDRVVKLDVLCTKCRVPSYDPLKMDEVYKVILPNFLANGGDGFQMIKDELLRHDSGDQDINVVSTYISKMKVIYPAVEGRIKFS

B1: N2-tmtIgG1 (antibody)
heavy: QVQLQQWGAGLLKPSETLSLTCAVYGGSFSGYYWSWIRQPPGKGLEWIGEINHSGSTNYNPSLKSRVTISVDTSKNQFSLKLSSVTAADTAVYYCARGRYDFWSGYYAYFDYWGQGTLVTVSSASTKGPSVFPLAPSSSTSGGTAALGCLVKDYFPEPVTVSWNSGALTSGVHTFPAVLQSSGLYSLSSVVTVPSSSLGTQTYICNVNHKPSNTKVDKRVEPKSCDKTHTCPPCPAPEFEGGPSVFLFPPKPKDTLMISRTPEVTCVVVDVSHEDPEVKFNWYVDGVEVHNAKTKPREEQYNSTYRVVSVLTVLHQDWLNGKEYKCKVSNKALPASIEKTISKAKGQPREPQVYTLPPSREEMTKNQVSLTCLVKGFYPSDIAVEWESNGQPENNYKTTPPVLDSDGSFFLYSKLTVDKSRWQQGNVFSCSVMHEALHNHYTQKSLSLSPGK
light: LNFMLTQPHSVSESPGKTVTISCTCSGGRIANNYVQWYQQRPGTSPTTVIYEDNLRPSGVPDRFSGSIDRASNSASLTISDLRTEDEAHYYCQSYDSNDGVAFGGGTKLTVLGQPKAAPSVTLFPPSSEELQANKATLVCLISDFYPGAVTVAWKADSSPVKAGVETTTPSKQSNNKYAASSYLSLTPEQWKSHRSYSCQVTHGGSTVEKTVALTECS
notes: Heavy chain assembled from the VH entry and the constant region entry named tmtIgG1; also called lead N2; N2 clone, tmtIgG1 isotype
B2: N2-wtIgG2 (antibody)
heavy: QVQLQQWGAGLLKPSETLSLTCAVYGGSFSGYYWSWIRQPPGKGLEWIGEINHSGSTNYNPSLKSRVTISVDTSKNQFSLKLSSVTAADTAVYYCARGRYDFWSGYYAYFDYWGQGTLVTVSSASTKGPSVFPLAPCSRSTSESTAALGCLVKDYFPEPVTVSWNSGALTSGVHTFPAVLQSSGLYSLSSVVTVPSSNFGTQTYTCNVDHKPSNTKVDKTVERKCCVECPPCPAPPVAGPSVFLFPPKPKDTLMISRTPEVTCVVVDVSHEDPEVQFNWYVDGVEVHNAKTKPREEQFNSTFRVVSVLTVVHQDWLNGKEYKCKVSNKGLPAPIEKTISKTKGQPREPQVYTLPPSREEMTKNQVSLTCLVKGFYPSDIAVEWESNGQPENNYKTTPPMLDSDGSFFLYSKLTVDKSRWQQGNVFSCSVMHEALHNHYTQKSLSLSPGK
light: B1 light
notes: also called N2 clone, wtIgG2 isotype
B3: N2-mtIgG2 (antibody)
heavy: B2 heavy with C225S
light: B1 light
notes: also called N2 clone, mtIgG2 isotype; C219S mutant IgG2
B4: N1-tmtIgG1 (antibody)
heavy: EVQLVESGGGLVQPGRSLRLSCAASGFTFDDYAMHWVRQAPGKGLEWVSGISWNSGSIGYADSVRGRFTISRDNAKNSLYLQMNSLRAEDTALYYCAKDMGWELLKTYYYGMDVWGQGTTVTVSSASTKGPSVFPLAPSSSTSGGTAALGCLVKDYFPEPVTVSWNSGALTSGVHTFPAVLQSSGLYSLSSVVTVPSSSLGTQTYICNVNHKPSNTKVDKRVEPKSCDKTHTCPPCPAPEFEGGPSVFLFPPKPKDTLMISRTPEVTCVVVDVSHEDPEVKFNWYVDGVEVHNAKTKPREEQYNSTYRVVSVLTVLHQDWLNGKEYKCKVSNKALPASIEKTISKAKGQPREPQVYTLPPSREEMTKNQVSLTCLVKGFYPSDIAVEWESNGQPENNYKTTPPVLDSDGSFFLYSKLTVDKSRWQQGNVFSCSVMHEALHNHYTQKSLSLSPGK
light: not shown
notes: Heavy chain assembled from the VH entry and the constant region entry named tmtIgG1; also called lead N1; N1 clone, tmtIgG1 isotype
B5: N1-wtIgG2 (antibody)
heavy: EVQLVESGGGLVQPGRSLRLSCAASGFTFDDYAMHWVRQAPGKGLEWVSGISWNSGSIGYADSVRGRFTISRDNAKNSLYLQMNSLRAEDTALYYCAKDMGWELLKTYYYGMDVWGQGTTVTVSSASTKGPSVFPLAPCSRSTSESTAALGCLVKDYFPEPVTVSWNSGALTSGVHTFPAVLQSSGLYSLSSVVTVPSSNFGTQTYTCNVDHKPSNTKVDKTVERKCCVECPPCPAPPVAGPSVFLFPPKPKDTLMISRTPEVTCVVVDVSHEDPEVQFNWYVDGVEVHNAKTKPREEQFNSTFRVVSVLTVVHQDWLNGKEYKCKVSNKGLPAPIEKTISKTKGQPREPQVYTLPPSREEMTKNQVSLTCLVKGFYPSDIAVEWESNGQPENNYKTTPPMLDSDGSFFLYSKLTVDKSRWQQGNVFSCSVMHEALHNHYTQKSLSLSPGK
light: not shown
notes: Heavy chain assembled from VH and the named constant region entry; also called N1 clone, wtIgG2 isotype
B6: N1-mtIgG2 (antibody)
heavy: B5 heavy with C227S
light: not shown
notes: Heavy chain assembled from VH and the named constant region entry; also called N1 clone, mtIgG2 isotype; C219S mutant IgG2
B7: N1#9 (antibody, human IgG2, V domains shown)
VH: EVQLVESGGGLVQPGRSLRLSCAASGFTFDDYAMHWVRLAPGKGLEWVSGISWNSGSIGYADSVRGRFTISRDNAKNSLYLQMNSLRAEDTALYYCAKDMGWSLLKTNYYGMDVWGQGTTVTVSS
VL: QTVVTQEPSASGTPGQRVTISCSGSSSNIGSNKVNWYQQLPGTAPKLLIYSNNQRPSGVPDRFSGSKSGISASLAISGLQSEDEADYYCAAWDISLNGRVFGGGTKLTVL
notes: also called N1 variant N1#9
B8: N1#2 (antibody, human IgG2, V domains shown)
VH: B7 VH with F27L, L39Q, G56N, S63P, S103E, N108S
VL: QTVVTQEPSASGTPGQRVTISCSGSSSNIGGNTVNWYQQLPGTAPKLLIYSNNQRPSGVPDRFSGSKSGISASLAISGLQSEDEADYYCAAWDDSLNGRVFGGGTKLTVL
notes: also called N1 variant N1#2
B9: N4#6 (antibody, human IgG2, V domains shown)
VH: QVQLVQSGAEVKKSGSSVKVSCKASGGTFSSYAISWVRQAPGQGLEWMGGIIPIFGTTNYAQKFQGRVTITADESTSIAYMELSSLRSEDTAVYYCASDGAVAAYDAFLIWGQGTMVTVSS
VL: QAVLTQPSSVSGAPGQRVTISCTGTSSNIGAGYDIHWYQQLPGTAPKLLMYRFTRRPSGVPDRFSGSKSGTSASLTITGLQVEDEADYYCQSYDSGQRGWVFGGGTKLTVL
notes: also called N4 variant N4#6
B10: N4#6-4 (antibody, human IgG2, V domains shown)
VH: B9 VH with G50M, T58A
VL: B9 VL with Y33F, T54S
notes: also called N4 variant N4#6-4
B11: N4#6-3 (antibody, human IgG2, V domains shown)
VH: B9 VH with T58A
VL: B9 VL with A31L, Q40H, T54D
notes: also called N4 variant N4#6-3
B12: N4#6-5 (antibody, human IgG2, V domains shown)
VH: B9 VH with G50R, V93M
VL: B9 VL with A31T
notes: also called N4 variant N4#6-5
B13: N4#5 (antibody, human IgG2, V domains shown)
VH: B9 VH with S35A, T58V, L109S
VL: B9 VL with Q97L, W100L
notes: also called N4 variant N4#5
B14: N4#6-2 (antibody, human IgG2, V domains shown)
VH: B9 VH with G50R
VL: B9 VL with A31H, Q40H, T54V
notes: also called N4 variant N4#6-2
B15: N4#4-3 (antibody, human IgG2, V domains shown)
VH: B9 VH with S30A, T58V, L109D
VL: B9 VL with A31Q, Q97L, V101A
notes: also called N4 variant N4#4-3
B16: N4-tmtIgG1 (antibody)
heavy: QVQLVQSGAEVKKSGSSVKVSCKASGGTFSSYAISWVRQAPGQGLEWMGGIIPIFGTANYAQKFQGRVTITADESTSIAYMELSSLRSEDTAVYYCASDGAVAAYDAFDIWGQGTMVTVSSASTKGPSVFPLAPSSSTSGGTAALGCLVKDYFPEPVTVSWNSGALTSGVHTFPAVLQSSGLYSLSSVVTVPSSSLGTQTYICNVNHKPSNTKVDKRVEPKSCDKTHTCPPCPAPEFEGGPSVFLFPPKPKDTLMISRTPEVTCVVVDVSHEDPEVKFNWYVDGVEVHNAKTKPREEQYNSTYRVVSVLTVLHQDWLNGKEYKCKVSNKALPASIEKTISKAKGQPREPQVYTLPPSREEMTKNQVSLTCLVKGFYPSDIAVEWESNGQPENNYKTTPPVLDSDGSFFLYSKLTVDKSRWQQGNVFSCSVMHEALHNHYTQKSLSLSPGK
light: QAVLTQPSSVSGAPGQRVTISCTGTSSNIGAGYDIHWYQQLPGTAPKLLMYRFTRRPSGVPDRFSGSKSGTSASLTITGLQVEDEADYYCQSYDSGLRGWVFGGGTKLAVLGQPKAAPSVTLFPPSSEELQANKATLVCLISDFYPGAVTVAWKADSSPVKAGVETTTPSKQSNSKYAASSYLSLTPEQWKSHRSYSCQVTHEGSTVEKTVALTECS
notes: Heavy chain assembled from the VH entry and the constant region entry named tmtIgG1; also called lead N4; N4 clone, tmtIgG1 isotype

Each binder was assayed against T1, human CD73 on CD73-expressing human … (assay: flow cytometry on MDA-MB-231 cells, biotin-labeled antibody, streptavidin-FITC (FIG. 5B)).
Method: (§1) The binding of anti-CD73 antibodies to cell surface CD73 were tested by incubating the MDA-MB-231 cells with the serially diluted biotin-labeled anti-CD73 antibodies in FACS buffer (PBS with 2% FBS) at 4° C. for 30 minutes. The cells were washed with FACS buffer and the binding was detected with streptavidin-FITC at 4° C. for 30 minutes. Flow cytometric analyses were performed using the Cytomics FC500 (Beckman Coulter Inc.).
(§2) The variable sequences of N1, N2 and N4 were cloned into human wild-type or C219S mutant IgG2 Fc backbone. Different IgG isotypes of N1 (FIG. 5A), N2 (FIG. 5B), N4 (FIG. 5C) were tested the binding to CD73-expressing human MDA-MB-231 cells by flow cytometry. Anti-CD73 ref-1 antibody and HLX01 (anti-CD20) were used as the positive and negative control respectively.

binding result	Binder
binds	B1
binds	B2
binds	B3

These binders were tested against T1, human CD73 on CD73-expressing human … (assay: flow cytometry on MDA-MB-231 cells, biotin-labeled antibody, streptavidin-FITC (FIG. 5A)).
Method: as §1, §2

binding result	Binder
binds	B4
binds	B5
binds	B6

Each binder was assayed against T1, human CD73 on CD73-expressing human … (assay: flow cytometry on MDA-MB-231 and NCI-H292 cells (FIGS. 11A, 11B)).
Method: Whole cell binding ability of anti-CD73 antibodies were tested by incubating the MDA-MB-231 or NCI-H292 cells with the serial-diluted antibodies in FACS buffer (PBS with 2% FBS) at 4° C. for 30 minutes. Cells were washed with FACS buffer and the binding was detected with FITC-labeled goat anti-human IgG (H+L) antibodies (or PE-labeled goat anti-human IgG Fcγ) at 4° C. for another 30 minutes. The binding of antibodies to cell surface was measured by the mean fluorescent intensity (MFI) of staining. Flow cytometric analyses were performed using the Cytomics FC500 or CytoFLEX flow cytometry (Beckman Coulter Inc.). FIGS. 2B and 2C show selected anti-CD73 antibodies binding to CD73-expressing human tumor cells MDA-MB-231 (human breast adenocarcinoma) cells (FIG. 2B), and NCI-H292 (human mucoepidermoid pulmonary carcinoma) cells (FIG. 2C).
FIGS. 11A-11B also show CD73 binding of N1 and N4 variants. Selected variants were tested the binding to CD73-expressing MDA-MB-231 (FIG. 11A) and NCI-H292 (FIG. 11B) cells by flow cytometry. HLX01 (anti-CD20) was used as the negative control. […] N4 variants have better CD73 binding ability than N1 variants in these two cell lines. The rank of the whole cell binding ability is: N4#5, N4#6-4, N4#6-5>N4#6-2>N4#4-3, N4#6, N4#6-3, N1#9>N1#2.

binding result	Binder
binds	B7
binds	B8
binds	B9
binds	B10
binds	B11
binds	B12
binds	B13
binds	B14
binds	B15

What follows are binders tested against T1, human CD73 on CD73-expressing human … (assay: flow cytometry on MDA-MB-231 cells, biotin-labeled antibody, streptavidin-FITC (FIG. 5C)).
Method: as §1, §2

binding result	Binder
binds	B16
